Laboratory results taken from the DeepSol protein solubility set.

assay: soluble on expression in E. coli; label from the status in PepcDB or PDB records

**Q.** With “LYLKRATHRIADGIGVVKASKLMGGSIRERVTGIDVMDNFLEYANQHKERIFLYGAKQEVVEAAAKNIQRQYPGIVISGILHGYTKKKQQEIVEQINKAEPRFVFVALGSPKQEIFLEQTIDHLTANVFLDVGGTFDVLAGSVKRAPEFYINHNLEWLYRCLTMKRYDRLMQIPKYIYLTIKYRNNKSRGQ” as the sequence, how does the “soluble on expression in E. coli” value read?
**A.** not soluble

**Q.** Which “soluble on expression in E. coli” value does the source give for “AGFKPAPPAGQLGAVIVDPYGNAPLTALVDLDSHVISDVKVTVHGKGEKGVEISYPVGQESLKTYDGVPIFGLYQKFANKVTVEWKENGKVMKDDYVVHTSAIVNNYMDNRSISDLQQTKVIKVAPGFEDRLYLVNTHTFTAQGSDLHWHGEKDKNAGILDAGPATGALPFDIAPFTFIVDTEGEYRWWLDQDTFYDGRDRDINKRGYLMGIRETPRGTFTAVQGQHWYEFDMMGQVLEDHKLPRGFADATHESIETPNGTVLLRVGKSNYRRDDGVHVTTIRDHILEVDKSGRVVDVWDLTKILDPKRDALLGALDAGAVCVNVDLAHAGQQAKLEPDTPFGDALGVGPGRNWAHVNSIAYDAKDDSIILSSRHQGVVKIGRDKQVKWILAPSKGWEKPLASKLLKPVDANGKPITCNENGLCENSDFDFTYTQHTAWISSKGTLTIFDNGDGRHLEQPALPTMKYSRFVEYKIDEKKGTVQQVWEYGKERGYDFYSPITSIIEYQADRNTMFGFGGSIHLFDVGQPTVGKLNEIDYKTKEVKVEIDVLSDKPNQTHYRALLVRPQQMFK” here?
**A.** soluble

**Q.** Which “soluble on expression in E. coli” value does the source give for “GSEKRQHSSQDVHVVLKLWKSGFSLDNGELRSYQDPSNAQFLESIRRGEVPAELRRLAHGGQVNLDMEDHRDEDFVKPKGAFKAFTGEGQKLGSTAPQVLST” here?
**A.** soluble

**Q.** For “MNSEQIYHVDFKQSKRIKSFHYAGGLFQLTSDGVIFVGKDKDNNELPPRWICSSLSVVAKTRDANSGEWGRLLEWVDDDGIKHQWAMPLALLQGDSSDVRRELARLGLTISPSKTARDLLASYIQVFPVEERARCVDKLGWYKEVFVTANEAIGQSLSVAGSVEDWRNSISRLADGNSRLVFAISAAFAPSLANLVGEDSGGFHFRGASSSGKTTALKVAASVWGKPDSYIRLWRSTANGLEGLAALHNDGLLILNELSQMDPKEAGECAYLLANGQGKTRASRCGTARQSMRWSLLFLSAGEESLTSLMAKAGQRCNAGQEIRLADIEADAGAEMGLFEQLHDHINPAAMSLALKEAASQYHGAVGLAWLHKIVKHRAELIALLTNKIQHFVAKVTKPEHSGQIQRVARRFALVAMAGEIATHYELTGWTRGTACNPAEKCFNAWLKDFGEHGNREDRAILSQVRAFFEKEGASRFENENHPNSERLFNRAGFFHTDSEGFRVFMVLSEVYRKEICQGFEPKMVNKVLINAGWIVPGNDGKASQKRRIKGIGIPRCYIFTEKVWSDDYLEHHHHHH”, which “soluble on expression in E. coli” value is on record?
**A.** soluble

**Q.** Which “soluble on expression in E. coli” value does the source give for “QGHMAWSAQQYLKFEDERTRPARDLLAQVPLERVLNGYDLGCGPGNSTELLTDRYGVNVITGIDSDDDMLEKAADRLPNTNFGKADLATWKPAQKADLLYANAVFQWVPDHLAVLSQLMDQLESGGVLAVQMPDNLQEPTHIAMHETADGGPWKDAFSGGGLRRKPLPPPSDYFNALSPKSSRVDVWHTVYNHPMKDADSIVEWVKGTGLRPYLAAAGEENREAFLADYTRRIAAAYPPMADGRLLLRFPRLFVVAVKK” here?
**A.** soluble

**Q.** For “MKMISTIQKKETVMVAPIPAKRGRKPAVATAPATGQVQSLTRGLKLLEWIAESNGSVALTELAQQAGLPNSTTHRLLTTMQQQGFVRQVGELGHWAIGAHAFMVGSSFLQSRNLLAIVHPILRNLMEESGETVNMAVLDQSDHEAIIIDQVQCTHLMRMSAPIGGKLPMHASGAGKAFLAQLSEEQVTKLLHRKGLHAYTHATLVSPVHLKEDLAQTRKRGYSFDDEEHALGLRCLAACIFDEHREPFAAISISGPISRITDDRVTEFGAMVIKAAKEVTLAYGGMR”, which “soluble on expression in E. coli” value is on record?
**A.** soluble

**Q.** Which “soluble on expression in E. coli” value does the source give for “MAHHHHHHMTDMELVEALNATEVPIARAVFLMISAVQDADAGDNKTWSCCHPDRSPAASPGSTTGWRSLRESPSGPAVIEVCYNDGADSFLTVKWVPMDKTHLVMITQRSDRERSHQPLNTSFCIEDEPLASLVLGQQTGSGASAAAMWTAESLGSALHRLRCLLQSAIGNTGRGSEQNEKFSAAQDSDCGRELPSPRRRNLVILNSTAVDPPLLLPLPCLPKAVCYLREWSRVLPAPVTAKRISSPVVEVLVWVAA” here?
**A.** soluble

**Q.** Which “soluble on expression in E. coli” value does the source give for “MGSDKIHHHHHHMADFNQYTRWEHQMHGVKLPRWDDLPKFDLYMDQVTALINDVLGPLGIDTVTPAMINNYVKHNVIMAPVKKKYQTMQLTDILMISLLKPMFQTDTVRSGIDQITAGDYPKQAYDNFIGQLEDRLHHLGEDQVQPAAQNLNEKLMQVAVDTVVSRLQSEKLLRLIKRPLRKIEKK” here?
**A.** not soluble

**Q.** Which “soluble on expression in E. coli” value does the source give for “MKEYLKEVLDVSGEKFFILNPMIPNMDSNKPNFIIGKKSLIYTGKFAKDWNSDEILEAFAKIVRTNPDFRLIVAGDKFNLHPENPNFKEEVTQKLKTYKNVDWVGGVTREEVQKLIQQSDIGIGWRNNSLNDSLELSTKALEYGALGKPVILNRTPMHERLFGSEYPFYANSEEEFISCITQSLTNDDIYASAAETVYKVCTDFTFAKTYERISPFLWEAKDKRIRLVFAGHDLKFAKMFIDRFASRTRYEVEIDQWKGHSVNDESHSTNCLNWADVIFCEWGLGNAVWYSHRVRQGQTLIVRMHLQERETKHYLKFNYDAIDSIIAISPYIRDEFVNNCGIPSDNMVMIYNAVNCKKFDLEKYEDTQFNLGITGICPSRKRLDRAIDIFEKLKEKDSRYTLHIKGQLPTHYPWLWKKEEEKKYYEQVFKRINSSKWRDSIIFDGFGNDMDTWFQKIGYILSTSDFESFHLAPAEGMASGAFPIIIRWEGCHTIYDEDFIFENVDEAATFILKRNQVMGPNDIDVRTYVRNRFDIEKIFGDWEELIARLR” here?
**A.** not soluble

**Q.** For “MGVLPKINIVARQFRKCSMAATSTSTSSSDNSVASTAFVQEHVRQMQNDIMVQLIPQDESGAVENLADLNVTSNLGRMTHYYFQQGGKMLRPTVSLLMGNACNSAANRSISEEYLAMLSTERSGIAAHLSVCQNQYKIGMIAEMIHTASLVHDDVIDEANTRRGSASVNAVWGNKMSVLVGDFILARATQILCSIGKPNIISVMASIIEDLVLGEFMQMSTTPTDATPVDRMKAYIEKTHRKTASLFASSCRSAAILADGSDLKLHEIAFEYGRNLGIAFQLADDLLDFIATADEMGKPVAADLKLGLATAPVLYACEQYPELNTMLLRKFKHDGDAEKAREIVVNSDGMDKTRRLIDSYSQKAVEMASSLPNRNESTEHLIKLAMSQSDRKF”, which “soluble on expression in E. coli” value is on record?
**A.** not soluble

**Q.** Which “soluble on expression in E. coli” value does the source give for “MYRMDKYTIGLIRVITLEDKEILNLHGRIIESAFPELKVVSRCIEDQPKGIYNEETEREAEPKIIRLAKEFEREGVDAIIISCAADPAVEKVRKLLSIPVIGAGSSVSALALAYGRRVGVLNLTEETPKVIRSILGNNLIAEDHPSGVSNTLDLLTDWGRREVINAAKRLKEKGVEVIALGCTGMSTIGIAPVLEEEVGIPVIDPVIASGAVALHALKRREVKRFEGR” here?
**A.** soluble

**Q.** Which “soluble on expression in E. coli” value does the source give for “MNLLQCYPTTTVDEMNCEEWGNGTESTQSVAACQGCIELRKEVTDLRQAVNLILPMLPLYPTIGNGFNATGLAAQPTLQHVIQQSLLRKRPVAQTPTVPQPECPGQIRPVLSSPAAALQNVIMLNPWIMGSSLKPASPTLPNGQIPTTIGETSLQGTDDQTVKWIGPSSVDSNGQKTDSSAASAGDNQNIDVIGDGSESPTSSNHSAQEIALMTSQQTFLNALKDSSFLFTNPVPTVETAPPLRVAPPINGTTNGTAKAGGPERKPRKPVNDDIVKIVRNQDLSEENISMFEIPVPKAIASDPTFRPVSEQQIIQQIIQGKKYEEMEVGECMIQLCKKLAEKRVFGPRLMSQTTVAGLNHSNYANLPIKGICYIQHVCRKVLYDKFENEEDFWDKFREAMRKLAARCRRVRHAKKTKHNREEAQAEMLSKRYGEDMPFNLNGAGLIRPKVETVSPEANILNSDQIKSQLESLFAHIPKTESETPLIEIIQQNISLFTHLIRTKVESQSPPLQGPQ” here?
**A.** not soluble

**Q.** Which “soluble on expression in E. coli” value does the source give for “MTEKLAVFTGKLAEAGVLNETQPLSMRLHLENIQAESDPESIVPLFSHGVILNILVEQLEESIPLSHLKKGTKVRFTVVGLPPMTMSIPPHVGGQAIELIEEI” here?
**A.** not soluble
